One assay deals with cynomolgus monkey FLT3. Nature of the assay: Cell surface binding to Ba/F3 cynoFLT3, flow cytometry. The method, then: (§1) For antibody binding studies, cells were stained on ice with primary mouse, rat or human anti-FLT3 antibodies (in house) and secondary antibody Goat F(ab′)2 Anti-Human Ig-PE (2012-09), Goat Anti-Mouse IgG (H+L)-PE (1032-09) or Goat Anti-Rat IgG (H+L)-PE (3052-09) purchased from Southern Biotech. For internalization experiments, cells incubated with anti-FLT3 antibodies were washed and incubated for 30 min at 4° C. or 37° C. followed by staining with secondary antibody.
Murine FLT3 (OMu21985D, Genescript), human CD64 (RC207487), CD32 (RC205786) and CD16 (RC206429), were purchased from Origene. Cynomolgues monkey FLT3 gene was synthesized from XM_015439107.1 by Eurofins. The constructs were cloned into retroviral expression vector MSCV-IRES-YFP (pMIY) using the In-Fusion HD Cloning Plus Kit (Takara Bio, Saint-Germain-en-Laye, France). All FLT3 point mutations were generated using the QuikChange II XL Site-Directed Mutagenesis Kit (Agilent Technologies, Santa Clara, CA, USA) and correct sequence was confirmed by Sanger sequencing. MSCV-IRES-YFP vectors with inserted human wildtype FLT3 and ITD (w51 and NPOS) mutated FLT3 has been described before (e.g., Opatz S, Polzer H, Herold T, et al. Exome sequencing identifies recurring FLT3 N676K mutations in core-binding factor leukemia. Blood. 2013; 122 (10): 1761-1769. doi: 10.1182/blood-2013-01-476473).
(§2) For FLT3 expression analysis, cells were stained on ice with primary mouse anti-FLT3-AF647 antibodies for 30 min. For antibody binding studies, cells were stained on ice with chimeric (20D9) or humanized anti-FLT3 antibodies (in house) or IgG1 control with or without Leu234Ala/Leu235Ala (LALA)-mutation in the Fc region and secondary antibody goat F(ab′)2 Anti-Human IgG-AF647 (2042-31) purchased from Southern Biotech for 30 min, respectively. Binding and expression were subsequently measured at the flow cytometer (BD FACSCanto II) and the results were evaluated with FlowJo version 10.8.1.
(In general: In flow cytometry, cells or beads pass a laser one at a time.)

Assay [1] has as its target T1, human wildtype FLT3 (hFLT3 wt) (Homo sapiens, UniProt P36888).
T1 construct: expressed in transfected cells; host or cells: Ba/F3 cells, retrovirally transduced with MSCV-IRES-YFP (pMIY) vector
T1 sequence (P36888 27-993): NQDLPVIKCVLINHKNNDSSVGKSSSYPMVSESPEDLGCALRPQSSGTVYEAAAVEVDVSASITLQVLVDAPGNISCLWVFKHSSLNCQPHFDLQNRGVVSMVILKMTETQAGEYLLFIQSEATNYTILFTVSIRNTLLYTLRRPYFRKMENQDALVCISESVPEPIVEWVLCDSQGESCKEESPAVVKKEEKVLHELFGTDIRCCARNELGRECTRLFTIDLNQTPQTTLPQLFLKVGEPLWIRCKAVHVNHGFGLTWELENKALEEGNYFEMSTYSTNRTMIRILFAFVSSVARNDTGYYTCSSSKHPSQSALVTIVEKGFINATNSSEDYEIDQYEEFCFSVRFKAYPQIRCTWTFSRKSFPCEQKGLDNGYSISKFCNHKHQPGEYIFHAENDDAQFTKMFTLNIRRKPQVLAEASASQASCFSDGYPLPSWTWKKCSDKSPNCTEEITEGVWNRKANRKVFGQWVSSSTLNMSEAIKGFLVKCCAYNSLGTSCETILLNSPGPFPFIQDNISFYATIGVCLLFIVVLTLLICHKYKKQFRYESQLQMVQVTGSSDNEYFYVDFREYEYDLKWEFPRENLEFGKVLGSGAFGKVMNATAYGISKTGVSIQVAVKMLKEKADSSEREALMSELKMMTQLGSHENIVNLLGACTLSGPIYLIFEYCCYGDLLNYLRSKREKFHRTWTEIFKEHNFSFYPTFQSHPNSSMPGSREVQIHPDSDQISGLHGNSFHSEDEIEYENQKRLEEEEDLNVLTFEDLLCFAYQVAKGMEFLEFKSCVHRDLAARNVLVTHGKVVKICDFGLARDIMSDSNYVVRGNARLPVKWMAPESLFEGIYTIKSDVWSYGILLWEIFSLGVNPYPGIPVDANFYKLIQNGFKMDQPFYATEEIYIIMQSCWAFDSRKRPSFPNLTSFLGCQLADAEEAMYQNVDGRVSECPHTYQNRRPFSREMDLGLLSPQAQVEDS
Nature of the assay: Cell surface binding to Ba/F3 hFLT3 wt, flow cytometry. The method, then:
as §1, §2

In assay [2] the target is T2, Ba/F3 cells expressing human wildtype FLT3 (Homo sapiens, UniProt P36888).
T2 construct: expressed in transfected cells; host or cells: Ba/F3 cells, retrovirally transduced with MSCV-IRES-YFP (pMIY) vector
T2 sequence (P36888 27-993): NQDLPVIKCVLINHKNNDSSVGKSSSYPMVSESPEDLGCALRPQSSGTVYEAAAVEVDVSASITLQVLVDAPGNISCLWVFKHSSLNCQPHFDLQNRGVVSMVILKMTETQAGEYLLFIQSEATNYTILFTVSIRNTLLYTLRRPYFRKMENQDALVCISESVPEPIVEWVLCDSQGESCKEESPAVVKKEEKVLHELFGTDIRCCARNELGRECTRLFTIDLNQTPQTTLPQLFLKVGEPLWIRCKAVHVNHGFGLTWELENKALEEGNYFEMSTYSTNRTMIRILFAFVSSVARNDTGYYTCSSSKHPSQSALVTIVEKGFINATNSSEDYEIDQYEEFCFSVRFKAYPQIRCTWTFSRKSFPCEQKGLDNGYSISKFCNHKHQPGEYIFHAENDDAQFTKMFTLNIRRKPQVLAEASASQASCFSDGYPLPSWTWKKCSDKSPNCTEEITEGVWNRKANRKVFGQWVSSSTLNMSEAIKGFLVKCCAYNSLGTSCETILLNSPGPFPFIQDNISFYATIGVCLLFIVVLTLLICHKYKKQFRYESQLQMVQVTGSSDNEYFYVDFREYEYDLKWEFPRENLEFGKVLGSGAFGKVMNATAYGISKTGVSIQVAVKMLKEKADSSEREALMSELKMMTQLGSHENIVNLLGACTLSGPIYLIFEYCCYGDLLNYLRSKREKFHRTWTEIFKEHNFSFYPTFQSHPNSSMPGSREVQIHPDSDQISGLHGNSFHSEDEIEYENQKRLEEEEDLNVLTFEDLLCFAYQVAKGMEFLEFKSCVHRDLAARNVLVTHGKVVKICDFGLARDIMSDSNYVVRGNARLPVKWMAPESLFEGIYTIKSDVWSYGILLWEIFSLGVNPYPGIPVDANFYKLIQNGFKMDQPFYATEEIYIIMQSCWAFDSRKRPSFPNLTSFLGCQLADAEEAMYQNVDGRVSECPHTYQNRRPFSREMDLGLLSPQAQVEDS
Nature of the assay: Temperature induced internalization in Ba/F3-FLT3, flow cytometry. The conditions noted are these: 30 min at 37° C. compared to 4° C. It counts as cell-based. The text has this: FIG. 1: Evaluation of epitope specificity and internalization capability of anti-FLT3 monoclonal antibodies. (A) Affinity of seven anti-FLT3 monoclonal antibody (mab) clones to recombinant human FLT3 measured in enzyme-linked immunosorbent assay (ELISA) normalized to the binding of the antibodies to BSA control. […] (B) Schematic FLT3 receptor. Black arrows indicate common mutations and blue arrows indicate the three identified epitopes of seven anti-FLT3 antibodies analyzed in linear epitope mapping by PEPperPRINT. Figure was created with BioRender.com. (C) Binding and temperature induced internalization of anti-FLT3 antibodies in Ba/F3 cells expressing human wildtype FLT3. Internalization was induced by incubation for 30 min at 37° C. (grey) compared to 4° C. (black). Remaining surface-bound antibody was detected in flow cytometry. MFI was normalized to control human IgG1 binding. MFI=mean fluorescence intensity. […] (D) Cell surface binding of 20D9 mab or control human IgG1 antibody to Ba/F3 cells stably expressing pMIY (Ba/F3-pMIY) empty vector (ev), human wildtype (hFLT3 wt) or ITD mutant human FLT3 (hFLT3ITD) was measured in flow cytometry. Mean±s.d. of n=3. (E) Temperature induced internalization of 4B12 mab in MOLM-13 (FLT3 positive) cells after 30 min incubation at 37° C. compared to 4° C. and HL-60 (FLT3 negative) after 37° C. incubation assessed in immunofluorescence staining. Red=FLT3 staining by 4B12, Green=membrane staining by Vybrant DiO, Blue=nuclear staining by DAPI. Scale bar 5 μm. Representative pictures are shown. (F) Cell surface binding of 20D9 mab or control hIgG1 antibody to Ba/F3-pMIY ev, hFLT3 wt, murine (mFLT3 wt) or cynomolgues monkey FLT3 (cynoFLT3 wt) was measured in flow cytometry. Mean±s.d. of n=3. (G) Cell surface binding of 20D9 mab or control hIgG1 antibody to Ba/F3-PMIY ev, hFLT3 wt or epitope mutant FLT3 (hFLT3/S50P/P54R) measured in flow cytometry. Mean±s.d. of n=3. (H) Cell surface binding of 20D9 mab or control hIgG1 antibody to Ba/F3-PMIY ev, hFLT3 wt or human CD64 (hCD64) measured in flow cytometry. Mean±s.d. of n=3. […]

B1: 4B12: chimeric anti-FLT3 antibody from rat; VH SEQ ID NO: 9, VL SEQ ID NO: 10 (antibody, V domains shown)
VH: QVQLQQSGPGLVQPSQTLSLTCTVSGFSLTSYNVNWVRQPPGKGLEWIGAMWRGGGTDYNPALKSRLSISRDTSKSQVFLKMNRLQTEDTAIYFCTRGFGDYWGQGVMVTVSSA
VL: DIQMTQTPLSLSVAIGQSASISCKSSQSLKYSDGKTYLNWVFQSPGQSPKRLIYQVSKLDSGVPDRFSGTGSETDFTLKISRVEAEDLGVYYCCQGSYSPSTFGAGTKLELKR
modifications: Clone 4B12, heavy chain variable region without a signal sequence; Clone 4B12, light chain variable region without a signal seqeunce
Take B1: the “Cross reactivity for cyno” value in the assay with cynomolgus monkey FLT3 was “cross-reactive and yes”. For the same molecule, the “Binding to Ba/F3-FLT3 cell line by flow cytometry” value in assay [1] is “specifically bound”. For the same molecule, the “Internalization in Ba/F3-FLT3” value in assay [2] was found to be 86%.

B2: 20D9: chimeric (rat variable regions, human IgG1) anti-FLT3 monoclonal antibody; VH SEQ ID NO: 5, VL SEQ ID NO: 6 (antibody, V domains shown)
VH: DVMLVESGGGLVQPGRSLKLSCVASGFTFNNYWMTWIRQAPGKGLEWIASITKTGGGTYYPDSVKGRFTISRDNAKSTLYLQMNSLRSEDTATYYCTTLQQLGVMDAWGQGASVTVSSA
VL: DVQMTQSPSVLSASVGDRITLNCKASQNINKELNWYQQKLGEAPKLLIYNTNNLQTGIPSRFSGSGSGTDYTLTISSLQPEDVATYFCFQHKSWPLTFGSGTKLEIKR
modifications: Clone 20D9, heavy chain variable region without a signal seqeunce; Clone 20D9, light chain variable region without a signal seqeunce
For the molecule B2, in the assay with cynomolgus monkey FLT3, the “Binding to cynomolgus monkey FLT3 expressing Ba/F3 cell lines” value is given as “bound”; the “Cross reactivity for cyno” value was “cross-reactive and yes”. The “Binding to Ba/F3-FLT3 cell line by flow cytometry” value in assay [1] is recorded as “specifically bound”. The “Internalization in Ba/F3-FLT3” value in assay [2] stood at 79%.

These data come from patent US20250049939A1, “NOVEL FLT3 ANTIBODIES AND ANTIBODY-DRUG-CONJUGATES BASED THEREON, THERAPEUTIC METHODS AND USES THEREOF IN COMBINATION WITH TYROSINE KINASE INHIBITORS” (TUBULIS GmbH, priority 2021, published 2025).
